Patent US10782287B2, “Enzyme coupled assay for quantification of protein and peptide binding by SAMDI mass spectrometry” (NORTHWESTERN UNIVERSITY, priority 2015, dated 2020)
Ends that are not written are not given here.

Molecular target: T1, Cbx1 fusion protein (Cbx1 chromodomain-KDAC8) (Homo sapiens, UniProt P83916)
T1 construct: constructing E. coli-based vectors containing chromodomains and KDAC8 separated by a short linker; made in house; host or cells: E. coli
Test: Enzyme-coupled SAMDI mass spectrometry assay: deacetylation of an immobilized KDAC8 substrate reports chromodomain binding to a co-immobilized ligand
Format: biochemical
Conditions: monolayer presenting substrate GMK^AcFGC and the ligand; when the chromodomain binds its ligand on the monolayer
From the text: In this example, two peptides—a methylated peptide that binds the chromodomain and an acetylated peptide that is a substrate for the deacetylase—are immobilized to a monolayer presenting maleimide groups against a background of tri(ethylene glycol) groups. The density of the maleimide group is controlled precisely (Houseman et al., Langmuir 19: 1522-1531 (2003)) and the relative densities of the two peptides are controlled either by immobilizing them as a mixture at defined concentrations or by immobilizing the first for a time that gives incomplete immobilization followed by addition of the second peptide. Fusion proteins are prepared by first constructing E. coli-based vectors containing chromodomains and KDAC8 separated by a short linker. The vector is designed to contain a restriction site allowing for the insertion of any chromodomain of interest containing the complementary restriction sites. In this way, the same plasmid containing KDAC8 may be used to rapidly create several chromodomain fusions. Monolayers are treated with the chromodomain-KDAC8 fusion protein for different times, the reactions are stopped by rinsing and the spots are analyzed by SAMDI mass spectrometry to identify an initial velocity for the reaction, υo, which is the measurable parameter that is used to assess the protein-ligand interaction. […]

T1 sequence (P83916 21-79 limits assumed): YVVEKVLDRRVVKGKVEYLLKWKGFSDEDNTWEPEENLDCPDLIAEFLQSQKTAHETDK

QTARK^MeSTGC: methylated H3K9-based peptide ligand for the Cbx1 chromodomain, immobilized on the monolayer via cysteine (QTARK(Me)STGC; also: immobilized on the monolayer via cysteine)
rate acceleration for the deacetylation reaction: approximately 20 fold
